Assay results from the DeepSol protein solubility set.

assay: soluble on expression in E. coli; label from the status in PepcDB or PDB records

| Sequence | soluble on expression in E. coli |
| --- | --- |
| MASTIKEALSVVSEDQSLFECAYGTPHLAKTEMTASSSSDYGQTSKMSPRVPQQDWLSQPPARVTIKMECNPSQVNGSRNSPDECSVAKGGKMVGSPDTVGMNYGSYMEEKHMPPPNMTTNERRVIVPADPTLWSTDHVRQWLEWAVKEYGLPDVNILLFQNIDGKELCKMTKDDFQRLTPSYNADILLSHLHYLRETPLPHLTSDDVDKALQNSPRLMHARNTGGAAFIFPNTSVYPEATQRITTRPDLPYEPPRRSAWTGHGHPTPQSKAAQPSPSTVPKTEDQRPQLDPYQILGPTSSRLANPGSGQIQLWQFLLELLSDSSNSSCITWEGTNGEFKMTDPDEVARRWGERKSKPNMNYDKLSRALRYYYDKNIMTKVHGKRYAYKFDFHGIAQALQPHPPESSLYKYPSDLPYMGSYHAHPQKMNFVAPHPPALPVTSSSFFAAPNPYWNSPTGGIYPNTRLPTSHMPSHLGTYY | soluble |
| MASTIYTCKECGSDLNLNPNDLFPPDFYFEAGNKGTLSFAAVDAEKFRFEKEDKIMPFFETLNYWGIQRKRTKIKCTSCNHLIGYIYDDGPPLTGGIGQYGFGPSQVIPRAPRYRFKTKARQDGWQYGGLTAFWN | not soluble |
| MASYYEILDVPRSASADDIKKAYRRKALQWHPDKNPDNKEFAEKKFKEVAEAYEVLSDKHKREIYDRYGREGLTGTGTGPSRAEAGSGGPGFTFTFRSPEEVFREFFGSGDPFAELFDDLGPFSELQNRGSRHSGPFFTFSSSFPGHSDFSSSSFSFSPGAGAFRSVSTSTTFVQGRRITTRRIMENGQERVEVEEDGQLKSVTINGVPDDLALGLELSRREQQPSVTSRSGGTQVQQTPASCPLDSDLSEDEDLQLAMAYSLSEMEAAGKKPAGGREAQHRRQGRPKAQHQDPGLGGTQEGARGEATKRSPSPEEKASRCLIL | soluble |
| MATAIAITSLLIISGCSSNVETTTVKKETMQSQQKNTETVNTTPQNFYKDITSGKIEHIHGIGYVGNVPWVSIATHSGIKVYQNGKWLETATQLHDYMGFQATKNGFFASGHPEPGANLKNPLGLMKSSDGGNTLEKLAFYGESDFHNLAVGYNTEAIYLYNERPNSKLQQGFYFSTNNGQDWKNSKLKGLSSTVHSFSVHPDQSSVVAVSTKDGVYLSTDYGNTFELFSKSLESTAVTLSNEDVIYAPINTQIVTKKSIATNEETNIQIPLLDSKDAIMYISQNPQNAAEIVFATMKANVFLSTDEGKTWKQLTKEGTLQFN | not soluble |
| MATANNPPSGLLDPTLCEDRIFYNILEIEPRFLTSDSVFGTFQQSLTSHMRKLLGTWMFSVCQEYNLEPNVVALALNLLDRLLLIKQVSKEHFQKTGSACLLVASKLRSLTPISTSSLCYAAADSFSRQELIDQEKELLEKLAWRTEAVLATDVTSFLLLKLVGGSQHLDFWHHEVNTLITKALVDPLTGSLPASIISAAGCALLVPANVIPQDTHSGGVVPQLASILGCDVSVLQAAVEQILTSVSDFDLRILDSY | soluble |
| MATATMLKPLGDRVVVKRIEEEAKTKGGIVLPDTAKEKPQKGKVVAVGSGRTLDNGTKVPLEVKEGDTVVFAKYGGTEIEIDGEEYIILSERDLLAVI | soluble |
| MATFFLLSAGKAQDRIPACPPLGKTLKMIKPLREMNWANDTIAVQTSFPSAFRETGRDEIIDSIALLTPVFERLRQVRAGLSEDTVRILHIGDSHVRGHIYPQTTGTLLKETFGAVSYTDMGVNGATCLTFTHPGRIADIAAMKPELLILSFGTNESHNRRYNVNLHYNQMDELVKLLRDSLPDVPILLTTPPGSYESFRQRRRKRTYAINPRTVTAAETIRRYAKDHRLLVWDMYDVVGGKRRACTNWTEAKLMRPDHVHYLPEGYILQGNLLYQAIIQAYNDYVSH | not soluble |
| MATFSISAMAAQCGVTTANIRSWERYGLLQPTKDEAGNRFYCIEDAIRIQHIIDALSKGFSLKEIKPALYGEETHCRSGWLFYQEEILAQCRKFEPAKLRKLLWRYGREIPPCIVIESILRPLRLWLSAGDDDARRFEKALLDTAIIEYATFQLSSVRKAPAGTMLIAAFSLNDPIELWLETIKYCSEGMRVEVIPWQAPMPDLLSTSFEHIVLWHDETLTPAQENLIQALKESGKFSLHVKNGSGLTLLPAVYRQHEMPESMQHVAPQIHANGYEKSGTAR | not soluble |
| MATNLIGLDTTQSQKLANALNNLLANYQVFYMNTRGYHWNIQGKEFFELHAKFEEIYTDLQLKIDELAERILTLSARPMHSFSGYLKAAQIKEHTDSIDGRSSMQGLVDGFSILLHQQRDILELAGETGDEGTSALMSDYIREQEKLVWMLNAWLK | not soluble |
| MATNLKSIAKLQKPIQYDKVIEVDRIFADPAFIEQHRQRILASFKDAKESALYHELTHIVIKDNLFSAAMNEIVSYFEFQINPEELKNVVEGLKRDVVKDADEKTIQSIAEKIIKKALVFNFLQKEWKVEVSDDIVKRVISLYYEKTNQNVREYLDDKQKFEGIRTALIEERMVLETINHFKFHFNLTGQLPS | soluble |
| MATSMIQRLFKQGTKIVGVGLNYASHAKELGNALPKDPIVFLKPTSSYLENGGTIEIPHPLDSLHHEVELAVVIGQKARDVPERLAMNYIGGYALALDMTARELQVSAMASGLPCTLAKGQDTFTPISSVLPKAMVLDPNNLELWLKVDDETRQKGWTKDMIFKVPYLISYISSVMTLFKGDVILTGTPEGIGPVKIGQKITAGITGLSEVQFDVGRRLKPLLR | soluble |
| MATTEQLANTTQKEPVIDLDQDSNMEIAHKIQNQTKRLPISEPANKNKNVTSKQNKETNRKTFEKSKRMATSTIQDRVLRTQKTRKDKESTTEKVNAILKKSAKQIKVREEEEGDDDLEDELTLYPSKRKMMVGSKNRKRTIKPNRDTIAEEQETDGEHGVKQRAFDPKQRHRQCPECLLLFSTPDKLKRHMKSHGDVPDVYCSLCNTPIKFKYNLRVHLEKCYDKMKLSLHDSMLSKVYPDFVRKLQEAAKNPVLPMPTLEGMPYEFTLKGVVGFDTSLDITKDLMLAKYEQKKQRELAGIDSDDSDELDYFDDFPDE | not soluble |
| MATTIPGSLVNKTKKFFMGMPAPTGYVPGVGRGATGFTTRSDIGPARDPTELPEAGPVGPSPQGASSSSAPPAKRARDDDGDGEDLNEANYDEFSGYSGSLFSKDPYDQEDEDADRIYNEVDDRLDERHKERREKKYKELVELFHKDRPKIQQGFQDLKRQLAEVTEDEWQAIPEVGDMRNKAKRNARAEKFTPVPDSIIAMNMNYGQMSHSIDSGNGLTTPFASGFMSTLGGGGGAAAAGAKSGIMTPGWKSDIPSSGTSTDLDLVKIGQARNKIMDMQLTQVSDSVTGQTVVDPKGYLTDMQSIIPQMGGDLQDIKKARMLLKSVRETNPRHPPAWVASAVLEEQAGKLQTARNFIMEGCEKIKNSEELWLHAIRLHPPELGRSIVANAVRSCPHSVRLWCKASDLEQDLKDKKKVLRKALEQIPSSVKLWKAAVELEDPEDARILLTRAVECCSSSTEMWLALARLETYENARKVLNKAREHIPTDRHIWLSAARLEETRGQKDMVDKIVAKAMSSLKVNQVEINRDQWLKDAVDAEMAKCPITCQAIIRNVIGLGVEDEDKRTTWLADAENFEKEEAFTCVRTVYAIALKEFSRKRSIWDAAIHFEREHGSLDEHEAILLKACETVPEVEDYWLMLAKLRFVNKRVGEARDTLMSAFEKHGHQSEKIWLAATKIEIETDQFDTARGLFGKARAKAPSARVWMKNAHFEWCLGNVEEAKRLCEECIQKYDDFHKIYLVLGQVLEQMNDVHGARLAYTQGIRKCPGVIPLWILLVRLEEKAGQIVKARVDLEKARLRNPKNDDLWLESVRFEQRVGCPEMAKERMSRALQECEGSGKLWAEAIWMEGPHGRRAKSIDALKKCEHNPHVLIAAARLFWSERKIKKAREWFVRAVNLDPDNGDAFANFLAFEQIHGKEEDRKSVFKKCVTSEPRYGDLWQSVSKDPINWRRTTEEILQLATQKIKVPT | not soluble |
| MAVDGLVSEKIKELLKELGKTYKLVVLTADTYGTLEKEFNGLPITVDKIKNEIEKEKAAEKYSPYIGIGNGNNDCLMLEKSELGILIIGEEGASTNALLKSDIVINNIKDAINLLLNEKRIIATL | not soluble |
| MAVEAVWESARILANSRFAVAFTGAGISAESGIPTFRGKDGLWSRFDPRDLATPEAFNRDPRLVWEWYSWRIERVLAAKPNKAHRLLARLEDSGVLKAVITQNVDGLHRRAGSRRVLELHGNVLRARCTRCGSKLEWREKPSNLPPSCPRCGGVLRPDVVWFGEPLDTSLLEEAFGLARRSDVMIIIGTSGAVDPAGLLPLAAKESGATLINVNPEPNRYSGVADIELRMRAVEFAERLSRAMGIDI | soluble |
| MAVKKIAIFGATGQTGLTTLAQAVQAGYEVTVLVRDSSRLPSEGPRPAHVVVGDVLQAADVDKTVAGQDAVIVLLGTRNDLSPTTVMSEGARNIVAAMKAHGVDKVVACTSAFLLWDPTKVPPRLQAVTDDHIRMHKVLRESGLKYVAVMPPHIGDQPLTGAYTVTLDGRGPSRVISKHDLGHFMLRCLTTDEYDGHSTYPSHQYQ | soluble |
| MAVMKVLIVEDETAAYENLTDILTEITPDIRIMANTESVTQTVGWLQSNPAPDLIFMDIHLSDGSAFAIFDRIELETPIIFTTAYDRYAIEAFKVNSIDYLLKPVKVEDVEHALEKYSKLTRQDLLQYLSQLTLLKPAPRYKDKLLIAHKDKLLPVNIKNISYFYATGKNTYVCLKDGNRYPYSKTLEQIASSLNPEDFIRANKQFIVARDSVTDITIWFDNRLLITLDTEVPERIYVSKNKASEFKTWLVNDK | not soluble |
| MAVNLYDYANQLEQALRESEEYKAIKEAFANVKANEESKKLFDEFRETQINFQQKQMQGEEIAEEDLQKAQEQAQAIEKDENISALMNAEQKMSQVFQEINQIIVKPLDEIYAD | not soluble |
| MAVQLLENWLLKEQEKIQTKYRHLNHISVVEPNILFIGDSIVEYYPLQELFGTSKTIVNRGIRGYQTGLLLENLDAHLYGGAVDKIFLLIGTNDIGKDVPVNEALNNLEAIIQSVARDYPLTEIKLLSILPVNEREEYQQAVYIRSNEKIQNWNQAYQELASAYMQVEFVPVFDCLTDQAGQLKKEYTTDGLHLSIAGYQALSKSLKDYLY | soluble |
| MAVQRYFVSGQAQQGGIVAISGDDAHHIARVMRMKPGDGIICVFPDGRTAVCEIEQIANEHVQARIVQWKEERSELPVRIYIAQGLPKGEKWELVIQKGTELGAAGFLPFEAARSVVKWDAKKAEKKVERWKKIAKEAAEQAERTVVPDVRAPLSFVELLAFGQTVDVRLFAYEKEARNARHAALPALLSRLRPGGALLAVFGPEGGFSPEEAEQLRQHGFSPCSLGPRILRTETAPLYLLSAASYEWELRAGGEAARGR | not soluble |
| MAVRIRLAKFGRKHHPIYRIVVMDAKSPREGKYIDILGTYDPKRKVLINVYPEKVKEWVLKGVELSHRAKAILWNHGILKEVVPEGYEMKRVGDYYVFEKRESKKSKGGEAA | soluble |
| MAVSLSKGGNVSLSKEAPGLTGIVVGLGWDPRATDGQAFDLDGSVFLLDAGGKVRGDSDFIFYNNKTSSDGSVEHTGDNTTGAGEGDDETVKIDLSKVPADVDKIAVCVTIHEAETRNQNFGQVSKAYIRVMNQTGGAEIARYDLSEDASTDTAMIFGEVYRHGSDWKFKAVGQGYAGGLAPLARNYGVNV | soluble |
| MAVSTVTGAAGIGLATLAADGSVLDTWFPAPELTESGTSATSRLAVSDVPVELAALIGRDDDRRTETIAVRTVIGSLDDVAADPYDAYLRLHLLSHRLVAPHGLNAGGLFGVLTNVVWTNHGPCAIDGFEAVRARLRRRGPVTVYGVDKFPRMVDYVVPTGVRIADADRVRLGAHLAPGTTVMHEGFVNYNAGTLGASMVEGRISAGVVVGDGSDVGGGASIMGTLSGGGTHVISIGKRCLLGANSGLGISLGDDCVVEAGLYVTAGTRVTMPDSNSVKARELSGSSNLLFRRNSVSGAVEVLARDGQGIALNEDLHANGVPRGLEHHHHHH | soluble |
